# Assay results published in patent US20250313612A1 (Adimab, published 2025).
# Where a chain is given by its changes, count along the chain named.
# B1: ADI-14563 (antibody, V domains shown)
# VH: QVQLVQSGGGLAQPGGSLRLSCAASGFIFSVYEMDWVRQAPGKGLEWLSYIDITGNSVTYADSVRGRFTISRDNARNSLYLQMDSLRVEDTAVYYCVRDSRGPTTQWLTGYFDFWGQGTTVTVSS
# VL: DIRMTQSPATLSLSPGERATLSCRASQSVSNYLAWYQQKPGQAPRLLIYDVSNRATGIPARFSGSGSGTDFTLTISSLEPEDFAVYYCQQRRNWPPLTFGGGTKVEVK
# B2: ADI-14558 (antibody, V domains shown)
# VH: QVQLVESGGGLIQPGASLRLSCGAYGFSFSSSAMSWVRQAPGKGLEWVSAISDNGGSTYYADSVQGRFTISRDNSKNTLYLQLNRLRAEDTAIYYCAKAYCSDSCHGGYFDYWGQGTLVTVSS
# VL: EIVLTQSPATLSLSPGDRATLSCRASQSVSSSFAWYQQKPGQAPRLLIYAVSNRATGIPARFSGSGSGTDFTLTISTLEPEDFAVYYCQQRSTWPLTFGPGTKVEIK
# B3: ADI-14529 (antibody, V domains shown)
# VH: EVQLVESGGGLVKPGGSLRLSCAASGFIFRNAWMSWVRQAPGKGLEWVGRIKRTSEGGSVDYATPVQGRFSISRDDSRNTLYLQMNSLETDDTAVYYCSTGPPYSYFDSSGYSVVDYWGQGTLVTVSS
# VL: QSVVTQPPSVSGTPGQRVTISCTGSSSNIGTPFDVHWYQQIPETAPKLIISGGFSRPSGVPDRFSGSQSGTSASLAISGLRSEDEGDYYCAAWDDSLSGPVFGGGTKLTVL
# notes: IgG; also called Antibody Number 89
# B4: ADI-14532 (antibody, V domains shown)
# VH: B3 VH with N79K, Q120L
# VL: SYELTQPPSASGTPGQRVTISCSASSSNIGDNYFYWYQQLPGKAPTLLMYGSDQRSSGVPDRFSGSQSGTSASLAISGLRSEDEADYYCAAWDDSLSGPVFGGGTQLTVL
# notes: IgG; also called Antibody Number 92
# B5: ADI-14537 (antibody, V domains shown)
# VH: B3 VH with N79K, Q120L
# VL: B4 VL with S1Q, Y2P, E3V, Q106K
# notes: IgG; also called Antibody Number 97
# B6: ADI-14557 (antibody, V domains shown)
# VH: QVQLQQWGAGLLKPSETLSLTCQVYGVSFSDYYWNWIRQSPGKGLEWIGDVNHIGNTDYNPSLKSRVSISVDTSKNQFSLTLRSVTAADTALYYCARGRKLFEVPPKAPDYWGQGTLVTVSS
# VL: DIVMTQSPGTLSLSPGERATLSCRASQSVSSTYLAWYQQKPGQAPRLLIYGASIRATGIPDRFSGVGSGTDFTLTISRLEPEDVAVYYCQQYGSSPQTFGQGTKVEIK
# B7: ADI-14556 (antibody, V domains shown)
# VH: EVQLVESGGGLVQPGGSLRLSCAASGFTFRSYWMTWVRQAPGKGLEWVASINDEGNTKYYVDSLKGRFTISRDNAKNSLYLQMNSLRAEDTAVYYCARESGLPRGAFQIWGPGTMVTVSS
# VL: EIVLTQSPVTLSLSPGERATLSCRASQSVGTFLAWYQHKPGQAPRLLIYDASNRASAIPARFSGSGSGTDFTLTISSLEPEDFAVYYCQHRSDWWTFGQGTKVEIK
# B8: ADI-14534 (antibody, V domains shown)
# VH: EVQLVESGGGVVQPGRSLRLSCAVSGFTFSNFGMHWVRQAPGKGLEWVAAISYDGRKRFQADSVKGRFTISRDNLKNTLNLQMNSLKTEDTAVYYCAKSSRLLDWLYNMDFWGQGTTVTVSS
# VL: SYVLTQPPSVSVAPGKTARITCGGNILGSSSVHWFQQKAGQAPVLVIYYDSDRPSGIPERFSGSHSGDTATLTISRVEVGDEADYYCQVWDNSNSQGVFGGGTQLTVL
# notes: IgG; also called Antibody Number 94
# B9: ADI-14538 (antibody, V domains shown)
# VH: B8 VH with R58T, T69I, L102F
# VL: B8 VL with V3E, V12E, R19T, N25I, S29T, A39S, N94H
# notes: IgG; also called Antibody Number 98
# B10: ADI-14527 (antibody, V domains shown)
# VH: QVQLVQSGAELKRPGSSVKVSCKASGVYLTSVAVNWVRQVPGHGFEWMGGILTGFGKVRHAQAFENRATLTADASTNTAYLELSGLQAEDTAAYYCAIIDPQDCTAASCFWVNWLDPWGQGTLVTVSS
# VL: EIVLTQSPGTLTVSPGERATLSCRASQSVLSSHLAWYQQKPGQAPRLLIYAASSRATDVPDRFSGSGSGTDFTLTISRLEPQDFAVYYCQQYGSSPITFGQGTRLEIK
# notes: IgG; also called Antibody Number 87
# B11: ADI-14528 (antibody, V domains shown)
# VH: QVQLVQSGAEVKKPGSSVKVSCKVAGGSFSNYAIAWLRQAPGQGLEWMGGIIPAFNRAMYARKFQDRVTITAYASTTTAYLDITGLRSEDTALYYCARPAGDFGDLKWVRSPFDYWGQGTLVTVSS
# VL: ETTLTQSPGTLSVSPGERATLSCRASQEVGINLAWYQQKPGQAPRLLIYGASTRATDVPARFSGSGSGTEFTLTISSLQSEDFAVYYCQEYNDWPPQLTFGPGTKVDIK
# notes: IgG; also called Antibody Number 88
# B12: ADI-14530 (antibody, V domains shown)
# VH: QVQLVQSGAEVKKPGSSVKVSCKVVGGSFSNYGIGWVRQAPGQGPEWMGGIIPAFKTAKYAKKFQDRVTITADESSSTAYMEVRGLRPDDTALYYCARPEGDFGDLKWVRSPFDYWGQGTLVTVSS
# VL: B11 VL with G9A, A19V, E28D, G30S, E70D, V85F, D107E
# notes: IgG; also called Antibody Number 90
# B13: ADI-14526 (antibody, V domains shown)
# VH: EVQLVESGPGLVRPSQTLSIKCSVSGGSINRGAYFWTWIRQRPGKGLEWIGSIHDTGSYYNPSLKTRVSISGDTSKNLFTLELTSLTAADTAVYYCARGRGYSYGWRYFDSWGQGTLVTVSS
# VL: SYVLTQPPSVSVSPGQTARITCSGDAFPRQYSYWYQQKAGQPPVLVILKDSERPSGIPARFSGSTSGTTVTLTITGVQAEDEADYYCQSSDSSGNYVVFGGGTKLTVL
# notes: IgG; also called Antibody Number 86
# B14: ADI-14531 (antibody, V domains shown)
# VH: QVQLVQSGAEVKKPGSSVKVSCKASGVILTSVAVSWVRQAPGKGFEWMGGILPGFNKVRHAQDFENRATHTADASTNTVYMELSGLKSEDTAVYYCAIIDPQDCTRASCFWVNWLAPWGQGTLVTVSS
# VL: ETTLTQSPGTLTLSPGERATLSCRASQSVPSRNLAWYQQKPGQAPRLIIYAASNRATDIPDRFSGSGSGTDFTLTISRLEPQDFAVYYCQQYETSPITFGQGTKVDIK
# notes: IgG; also called Antibody Number 91
# B15: ADI-14535 (antibody, V domains shown)
# VH: QVQLQQWGPGLVKPSQTLSLTCSVSGASVKIGSNFWTWIRQRPGKGLEWIGAIHDTGTTYYNPSLEPQVIISTDTSQNQFSLRLTSVTAADTAVYYCARGRGYTYGWRYFDYWGQGTLVTVSS
# VL: SYVLTQPPSVSVSPGQTARITCSGDALPKQYAFWYQHKAGQAPVLVIKKDTERPSGIPERFSGSISGTTATLIISGVQAEDEADYYCQSSDSSGNVVLFGGGTQLTVL
# notes: IgG; also called Antibody Number 95
# B16: ADI-14562 (antibody, V domains shown)
# VH: EVQLVESGPEVKGPGSSVKVSCEASAATFSNYAISWVRQAPGQGLEWMGGFVPMLGTRNYAQKFKGRVTLTADVSTHTLYLEIGSLRFEDTAVYYCATVAGLGTSYGRYLESWGQGTLVTVSS
# VL: DIRMTQSPSSVSASLGDRVTITCRASQDISTALAWYQQIPGKAPKLLIYEASSLQSGVPSRFRGSGSETDFALTISSLQPEDFATYYCQQAKSFPYTFGQGTKVEIK
# B17: ADI-14551 (antibody, V domains shown)
# VH: QVQLQESGPGLVKPSETLSLTCSVSGGSIKRGAYFWTWIRQRPGKGLEWIGSMHDSGDYYNPSLKTRVTILGDTTKNHFTLKLTSVTVADTALYYCARGRGYSYGWRFFDNWGQGTLVTVSS
# VL: NFMLTQPPSVSVSPGHSTRITCSGDALPKQYAYWYQQKPGQAPVLIMSKDSERPSGIPERFTGSSSGTTVTLTISGVQAEDEADYYCQSGDTSGSYVVFGGGTKVTVL
# notes: IgG
# Target: RSV F protein of subtype A (strain A2) on recombinant mKate-RSV (Respiratory syncytial virus subtype A …, UniProt P03420 26-574)
# Assay: cell-based or functional assay
row,Binder,Neut IC50 (µg/ml) subtype A [µg/mL]
1,B1,> 10
2,B2,> 10
3,B3,2.38
4,B4,0.168
5,B5,0.272
6,B6,> 10
7,B7,> 10
8,B8,> 10
9,B9,> 10
10,B10,> 10
11,B11,> 10
12,B12,> 10
13,B13,2.36
14,B14,> 10
15,B15,> 10
16,B16,> 10

# Target: RSV F protein of subtype B (18537) on recombinant mKate-RSV (Respiratory syncytial virus subtype B …, UniProt P13843 26-574)
# Assay: cell-based or functional assay
row,Binder,Neut IC50 (µg/ml) subtype B [µg/mL]
1,B1,> 10
2,B2,> 10
3,B3,0.991
4,B4,0.208
5,B5,0.292
6,B6,> 10
7,B7,> 10
8,B8,> 10
9,B9,> 10
10,B10,> 10
11,B11,0.705
12,B12,> 10
13,B13,9.67
14,B14,> 10
15,B15,> 10
16,B16,10.5

# Target: T1, RSV F ectodomain stabilized in the postfusion conformation (F ΔFP), subtype B (Respiratory syncytial virus subtype B, UniProt P13843 26-109; P13843 147-524)
# T1 construct: extracellular domain; trimer; also called Postfusion subtype B
# Assay: BLI, IgG on AHQ sensors, 100 nM antigen
row,Binder,Kd [nM]
1,B17,0.195
2,B3,0.798
3,B4,0.136
4,B5,0.142
5,B8,0.93
6,B9,0.154
7,B10,0.645
8,B12,37.6
9,B13,0.342
10,B14,23.8
11,B15,0.238

# Target: T2, RSV F ectodomain stabilized in the postfusion conformation (F ΔFP), subtype A (Respiratory syncytial virus subtype A, UniProt P03420 26-109; P03420 147-524)
# T2 construct: extracellular domain; trimer; also called Postfusion subtype A; Postfusion RSV F
# Assay: BLI, IgG on AHQ sensors, 100 nM antigen
row,Binder,Kd [nM]
1,B17,0.207
2,B3,1.71
3,B4,0.224
4,B5,0.211
5,B8,1
6,B9,0.35
7,B10,0.889
8,B11,35.2
9,B12,47.2
10,B13,0.346
11,B14,12.6
12,B15,0.23
